Assay results taken from a protein production outcome set (Wang et al. 2014).

Assay: label from the status in PepcDB records

Sequence | protein production
MIEIKQVKTQDEVNYTFVEKLMHTAFPQEERRDTVQQREYSDNNPRFCNNIILENGNSIGMISYWTMGDFYYIEHFAIDPSLRNGGYGKRVLEMIKKQLKGPIVLEVEEPNDEMSTRRIHFYKRLEFTLHKKPYIQPPYRKGDSGLPMLLMTYGDIDMESDFEKVKKTLYKEVYGQEI | not failed
MIERILASLILCLMLGIPFGMMFSFTGDVVLNFTFFWPLFMSGLWITGGLYFWFHYERHWRWGDGVIPDEPTGRPLVSILIPCYNEGPNVRETIEAALAQRYTHIEVIAVNDGSNDDTGDELNRLAEQYDKLRVIHLAHNQGKALALQAACAAAKSDLLVCIDGDALLDPDAVAYLINPLINNPRVGAVTGNPRIRTRSTLIGRIQVGEFSSIIGLIKRTQRVHGKVFTVSGVIAAFRRSALAEVGYWSPDMITEDIDISWKLQLRHWTIFFEPRALCWILMPEKLSGLWKQRLRWAQGGAEVFLKNFRHLWSWRYRRMWPLFLEYSISILWAFTYAVSVLLYLLGFLIELPEEIRVETLFPPAFTGMMIGVVCLIQFAVSMLIERRYEKDIGKYLFWVIWYPMVYWTLSLFTSLVSFPKVMLRSRKKRARWESPDRGIERG | failed
MIESMIIAGGMLVALLYMTACSDKLDVQQMYEFDLATLPVQTTIVKGEEAEIRCQLVRSGEYQDTKYFIRYFQPTGKGELRMENGTVLLPNDLYLLPEETFRLYYRSFGTDQQKIDIYILDSFGQVVQKSFAFNNLEHHHHHH | failed
MIEVAEIIAREIRRGKIVEIGVGFYLEVAKRLRESGIDILVVDINEKAINYARKQGIKGVVDDIFNPTLGIYKDAKAIYSIRPAPEMMKPLLDLARKLKIPLYIVPLTGDRTPNGMKLINYKGIPIYKWEP | not failed
MIEVLSVITSATVQDLGRWGYQRYGVPVSGVMDEVSARIANYLVGNPDNTPLIEFTAGGISIKFHTSAVFAVTGDATLYLNDTQLEPWESYWAKRGDVLTVRLSKGMYGYIAFSGGIECRKILGSCSTYLRAKFGGLLKPGDKLKLGYSLLTGKAGKRLPEELRPRFDKTVRVILGPNIEHFTPEGMRTFLTSEYTVTPESDRMGYRLEGPRIEHSEKGADIITEPIPRGAIQVPANGKPIIMLADAQTTGGYAKIATVIRVDIPMVVQTRPGEKLRFKAVSVNEAVQELRKRERI | not failed
MIEVVCNDRLGKKVRVKCNTDDTIGDLKKLIAAQTGTRWNKIVLKKWYTIFKDHVSLGDYEIHDGMNLELYYQ | not failed
MIFASDLDQTLIYSRKSFRAHIEDNSIQLIETLDGKEISFITYKTITLLIKLQLHSYFIPVTTRTIEQFQRITLFQNEIIPEYAITSNGGNILHNGKQDVTWNKEIKKRISVECIERNDILKEFEQIAHKDWVISQKTADDLFHYCIIKRENIPYDELSSFTSWLDKQGWNHSLQGRKLYFVPKPINKWDAVQYIQEILQMDTIITAGDSLLDLCMLEKANYAFAPLHGELGATYNHLQPHIVKTDAIGIYAAEEIVSKSLQIIHSSSPTS | failed
MIFDTEPDAMTLAPDDKPQDRHFDWSGVPIDLGGMEPLEQIARLLCHALVAPAAALTITEGGRLRVLAARGISSSHVEQAMELCKQVPPAPNGVTELIEHATLAQIKLGDAAFPGLPARFIACVPVGAPQTGISGTLCVIDTRERRLASQEHQQLLMFANVAAAQLELQFGAGRREPHSGLLNTRQLQSDLDALAFGSHSVPTIAAFIEVYDTQAANEARQALGMQPLEELVRHASYVLTRALRGKATVYHVASMRFAFFLLNSAPDEMEDLLLDLRDMLHKPVDAAGVPMSLTFHAGVVRFAPQQPDTNDVMRKGLVALGDAINNHAIVCWYSASHDDAIQRSYRLALDAEQALDAGDFRLVFQPRIDLEDLSVTGFEALLRWNHASMGPIGPDEFIPLFEKTALMCTVTNWVIESALVQLAKWRAQGLDFSMSINLSSRDFGNINLAADVINRCKDLAIPTTCIELEITEGRWLRSNVEAVPRLRALRDAGVSVAIDDFGTGYSNFGYLTELPVNVLKLDRSLVTGIATKTGMQMRAEAVVRLANALGYRTVAEGIEHADEIALLRSWGCDEAQGYLLAKPMEAHLVADYVKQTAALRRLP | failed
MIFIESITNSVPWVNSLALTLNSPLLATTNEAENAPIVLTGVLLTLVVIYLASKIGGELSRLVDLPPVLGELVAGVLVGASALHLVVFPESGAVAGDSVIMTILQFINNLTPDAVTAIFQSQSEAVSVLAELGVIILLFEIGLESDLKELQKVGYQATIVACVGVAVPFTAGTVGLISIFHAPVIPAIFAGAALTATSIGITSKVLSELGQLKSREGQIIVGAAVIDDILGIIVLAVVASLAKTGEVDVLNVIYLIVSATVFLIGSILLGKYFNQSFVAIANKLQTRGNLIIPAFIFAFFMAFLGNAIHLEAILGAFAAGLVLDETDKRKELDEQVKPIADILVPIFFVTVGAKVDLSVLNPVVPGNREGLIIATFLIVVAIIGKIVTGWAVFGQPGINRLAVGVGMIPRGEVGLVFAGIGSASGALDKPLQAAIIIMVILTTFLAPPLLRFAFKQSEEIKELEKADLLG | failed
MIFLIFSFIVLLIFGLANVYIYKRLIKKITLFKYFYKIFSFIFIVLFLAQAVFLIFRRDEYLSDTWYEILAMFYAPTYCLFFMTLAWDFVKLILALMGKRDKTYNLILRLIFELSLIVLSVFLIYVSINNALKTPEVKSVDVEIPNLKKDLKIVMLTDIHLGKNLHENFLDKLITKVNLQSPDMVVIVGDLIDTNPKDLKNYISKLNDFNSTYGTFYALGNHEYYHGINEVLDLLRKHTNMKILVNQNLDLGFINIAGLGDLAGLDRGLYAPDLARIKVDLNTSKASILLTHQPKTALLYDLSDFDLVLSGHTHGGQIFPFMFLVKLQQGFVHGLYDLGEKTKLYVSSGAGFWGPSLRVFAPSEIVILNLKGKK | failed
MIFMNMVNRERELQALKKRLSSNDLELIIIYGRRRIGKTFLIINAVNGYDFIYYLATEKNNLRKFKELTESKYEDIKYVKEDWEAIFHYLRDKIIIIDEFPYMIKEDESILSTFQKIVDETLKGSKTKLILLGSSISMMEDAISYKSPLYGRRTASIELKELKFKDLKGFNFSLIDAIHVYGFAGGVPFYLTKAKTPFLKWINAELKEVDSFIKDEIDFMLRYEFSEIGTYKEILHAISSGKNTLGEIKDFVRISGDVSSYLNKLEKIGIIGKEFPYKMKKGARYYIKDNFTLFWFTFIYPNLSLIEEGIYEIKEDEYNVYLGRIFEKIAREYVEDVYKVKVERLWFKDVEIDIYGDGIAGECKWSEGINGEKVLYELKRKVEDLGLDVKKYIIFAKSFSKTNEEAEFIDLKKLEQWYRTLEHHHHHH | not failed
MIFMRTEDVRRDIPLLRDHVYLDAASTTPTPLPVVRAMTEYFKEYNANTGRGAYSLVLRATRKLQEAREKVAGFINASSDEIVFTKNTSEAINIVAGGLRFRKGDSVVVPNIEHHSNFLPWLRLRERGVDVRVVKADEGGVVDPGRIEDAVDETTRLVTVTHISNALGTVQDVKEIGRIAHDVGALYLVDAAQSIGHMEVDVRAIGADFAAFPGHKGTLGPVGTGFLYCSTDVQGELEPLMLGGGTVLDVSEDGYVLEDFPAKFEAGTLNIAGFIGLGASIDYMNRIGIRRIQKHGMKMTEELHATVSSIDGIECYGDPQNIYGILSFNINNMDPHDVAKILDETAGICVRSGHHCAIPAMKHLALHETGGTVRASIHYYNTSEEIQLLGETLEEIAGMG | failed
MIFVLLICPLFIFIVSVIGTRKTKTYYVMPIVTFASFLIIGVIAFTPKFFFWVGMYSIFSFIVSYMTLLFVKGYEVAENAK | failed
MIGAILAGGYGKRLKPITDSIPKALVEIKDNYTIMDRQLFDFSIMGIEAVYILSGYLGNKIEERYGSRYRDMNIYYLREEKPLGTLYSLRNLIDEVKDDDIVLRNGDTVTDVNFLNFLKKAQDQKYYITMYVTRMKSPFGIVETFGDQIVQFREKPELNHYINAGLYYIKSDAFPYFFEKYIDRDLETTVFPRMAREGLIGSYTEEAMWIGIDSEKDLERIRADYRNREDYPWGYLKVLYDDDRSRLLEYAIKAGSDTEIDCGDGCILRIQSGLGTFGDSSDEKFRNGDVRSISGKVRVNAFENTRLELIISKKLEHHHHHH | failed
MIGDYERFKQLKKKVAEALNISEEELDRMIDKKIEENGGIILKDAALMMIAKEHGVYGEEKNDEEFLISDIEEGQIGVEITGVITDISEIKTFKRRDGSLGKYKRITIADKSGTIRMTLWDDLAELDVKVGDVIKIERARARKWRNNLELSSTSETKIKKLENYEGELPEIKDTYNIGELSPGMTATFEGEVISALPIKEFKRADGSIGKLKSFIVRDETGSIRVTLWDNLTDIDVGRGDYVRVRGYIREGYYGGLECTANYVEILKKGEKIESEEVNIEDLTKYEDGELVSVKGRVIAISNKKSVDLDGEIAKVQDIILDNGTGRVRVSFWRGKTALLENIKEGDLVRITNCRVKTFYDREGNKRTDLVATLETEVIKDENIEAPEYELKYCKIEDIYNRDVDWNDINLIAQVVEDYGVNEIEFEDKVRKVRNLLLEDGTGRIRLSLWDDLAEIEIKEGDIVEILHAYAKERGDYIDLVIGKYGRIIINPEGVEIKTNRKFIADIEDGETVEVRGAVVKILSDTLFLYLCPNCRKRVVEIDGIYNCPICGDVEPEEILRLNFVVDDGTGTLLCRAYDRRVEKMLKMNREELKNLTIEMVEDEILGEEFVLYGNVRVENDELIMVVRRVNDVDVEKEIRILEEME | failed
MIGKRFFQTTSKKIAFAFDIDGVLFRGKKPIAGASDALKLLNRNKIPYILLTNGGGFSERARTEFISSKLDVDVSPLQIIQSHTPYKSLVNKYSRILAVGTPSVRGVAEGYGFQDVVHQTDIVRYNRDIAPFSGLSDEQVMEYSRDIPDLTTKKFDAVLVFNDPHDWAADIQIISDAINSENGMLNTLRNEKSGKPSIPIYFSNQDLLWANPYKLNRFGQGAFRLLVRRLYLELNGEPLQDYTLGKPTKLTYDFAHHVLIDWEKRLSGKIGQSVKQKLPLLGTKPSTSPFHAVFMVGDNPASDIIGAQNYGWNSCLVKTGVYNEGDDLKECKPTLIVNDVFDAVTKTLEKYA | not failed
MIGLNTAAIYILQTLGSLYLLIVLLRFILQLVRADFYNPLSQFIVRATKPLLNPLRRIIPGFGGIDLASLVLAILIQLVLMILILMLMGYGVGGFIMQLLIWSIIAVTSLFLKVFFFALIISVILSWVAPGSYNPGAQLVNQICEPLLMPFRKLLPNLGGLDLSPIFAFLALKLIDMLVINNLAAMTGMPQQLSIFL | failed
MIGLNTAAIYVLQTLGSLYLLIILLRFVLQLVRANFYNPLCQFIVRATQPLLKPLRRIIPSLFGLDMSSLVLAIIVQMILMALTLLLMFGTTGDPLHLLLWSIIGVTALFLKIFFFALIISVILSWVAPGSHNPGAELVNQICEPALAPFRKIVPNLGGLDISPILAFLVLKLLDMLVINNLAAMSNMPDVLRLLM | failed
MIGQTDQNIVITYSANIQQVKILYVDEKGSEVSSMLLKGNTDQTVNVSYSVPDHWIAISGQDSPLQYTFKAKDNKNIVIRIGHKLEDQENDIHKIIRNVNIVNPDGSVAKVSQTAIFTRVHQRDEVTGEEVYGNWDKISQDFNAIDIPKIFGYTATSSVGKMTVTPDSQSENITITYTADIQNNKIVIIDDESHGSQINTVGFTGKTGKSIAWQVTIPENYDLAAGGKISGNYTFNAVNQIPIEVHVRHKHVQDDESKSVTRTIVTNLPGLDKSEIVQTVTFSRIIDKDLVDGN | failed
